Experimental findings from patent publication US20140004120A1 (published 2014) are described below.

Read-outs that look alike come from different tables or passages of the source.

Holding throughout (assay): Biacore
(In general: In SPR one partner is held on a chip, and binding of the other changes the refractive index at the surface.)

The target in experiment [1] is T1, rsDR5 (recombinant human DR5 extracellular domain protein) (UniProt O14763 56-183).
T1 chain: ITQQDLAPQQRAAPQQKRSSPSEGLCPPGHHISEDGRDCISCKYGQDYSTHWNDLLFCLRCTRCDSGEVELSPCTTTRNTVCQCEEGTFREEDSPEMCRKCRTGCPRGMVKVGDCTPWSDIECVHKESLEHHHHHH

Experiment [2] concerns the target T1, rsDR5 (recombinant human DR5 …).
For experiment [3] the target is unchanged.

B1: hB273_H1/hB273_L2 (antibody)
heavy: not shown
light: DVVMTQTPLSLPVSLGEPASISCRSSQSLVHSNGNTYLHWYLQKPGQSPKLLIYKVSNRFSGVPDRFSGSGSGTDFTLKISRVEAEDVGVYFCSQSTHVPWTFGPGTKVEIKRTVAAPSVFIFPPSDEQLKSGTASVVCLLNNFYPREAKVQWKVDNALQSGNSQESVTEQDSKDSTYSLSSTLTLSKADYEKHKVYACEVTHQGLSSPVTKSFNRGEC
B1: the Kd (usually the free concentration of one partner at which half of the binding sites on the other are occupied at equilibrium, for simple one-to-one binding) in experiment [1] is 6.53 nM.

B2: hB273_H1/hB273_L3 (antibody)
heavy: not shown
light: DVVMTQTPLSLPVSLGEPASISCRSSQSLVHSNGNTYLHWYLQKPGQSPKLLIYKVSNRFSGVPDRFSGSGSGTDFTLKISRVEAEDVGVYFCSQSTHVPWTFGGGTKVEIKRTVAAPSVFIFPPSDEQLKSGTASVVCLLNNFYPREAKVQWKVDNALQSGNSQESVTEQDSKDSTYSLSSTLTLSKADYEKHKVYACEVTHQGLSSPVTKSFNRGEC
As for B2, the Kd in experiment [1] was found to be 6.04 nM.

B3: hB273_H3/hB273_L2 (antibody)
heavy: not shown
light: DVVMTQTPLSLPVSLGEPASISCRSSQSLVHSNGNTYLHWYLQKPGQSPKLLIYKVSNRFSGVPDRFSGSGSGTDFTLKISRVEAEDVGVYFCSQSTHVPWTFGPGTKVEIKRTVAAPSVFIFPPSDEQLKSGTASVVCLLNNFYPREAKVQWKVDNALQSGNSQESVTEQDSKDSTYSLSSTLTLSKADYEKHKVYACEVTHQGLSSPVTKSFNRGEC
Take B3: the Kd in experiment [1] is 2.19 nM.

B4: hB273_H2/hB273_L1 (antibody)
heavy: not shown
light: DIVMTQSPLSLPVTPGEPASISCRSSQSLVHSNGNTYLHWYLQKPGQSPQLLIYKVSNRFSGVPDRFSGSGSGTDFTLKISRVEAEDVGVYYCSQSTHVPWTFGPGTKVEIKRTVAAPSVFIFPPSDEQLKSGTASVVCLLNNFYPREAKVQWKVDNALQSGNSQESVTEQDSKDSTYSLSSTLTLSKADYEKHKVYACEVTHQGLSSPVTKSFNRGEC
For the molecule B4, in experiment [1], the Kd came out at 4.36 nM.

B5: hB273_H2-3/hB273_L1 (antibody)
heavy: not shown
light: DIVMTQSPLSLPVTPGEPASISCRSSQSLVHSNGNTYLHWYLQKPGQSPQLLIYKVSNRFSGVPDRFSGSGSGTDFTLKISRVEAEDVGVYYCSQSTHVPWTFGPGTKVEIKRTVAAPSVFIFPPSDEQLKSGTASVVCLLNNFYPREAKVQWKVDNALQSGNSQESVTEQDSKDSTYSLSSTLTLSKADYEKHKVYACEVTHQGLSSPVTKSFNRGEC
B5: the Kd in experiment [2] came to 2.12 nM.

B6: hB273_H2-1/hB273_L1 (antibody)
heavy: not shown
light: DIVMTQSPLSLPVTPGEPASISCRSSQSLVHSNGNTYLHWYLQKPGQSPQLLIYKVSNRFSGVPDRFSGSGSGTDFTLKISRVEAEDVGVYYCSQSTHVPWTFGPGTKVEIKRTVAAPSVFIFPPSDEQLKSGTASVVCLLNNFYPREAKVQWKVDNALQSGNSQESVTEQDSKDSTYSLSSTLTLSKADYEKHKVYACEVTHQGLSSPVTKSFNRGEC
In the case of B6, the Kd in experiment [2] came to 1.99 nM.

B7: hB273_H2-2/hB273_L1 (antibody)
heavy: not shown
light: DIVMTQSPLSLPVTPGEPASISCRSSQSLVHSNGNTYLHWYLQKPGQSPQLLIYKVSNRFSGVPDRFSGSGSGTDFTLKISRVEAEDVGVYYCSQSTHVPWTFGPGTKVEIKRTVAAPSVFIFPPSDEQLKSGTASVVCLLNNFYPREAKVQWKVDNALQSGNSQESVTEQDSKDSTYSLSSTLTLSKADYEKHKVYACEVTHQGLSSPVTKSFNRGEC
For the molecule B7, in experiment [2], the Kd was found to be 2.14 nM.

B8: hB273_H2/hB273_L2 (antibody)
heavy: not shown
light: DVVMTQTPLSLPVSLGEPASISCRSSQSLVHSNGNTYLHWYLQKPGQSPKLLIYKVSNRFSGVPDRFSGSGSGTDFTLKISRVEAEDVGVYFCSQSTHVPWTFGPGTKVEIKRTVAAPSVFIFPPSDEQLKSGTASVVCLLNNFYPREAKVQWKVDNALQSGNSQESVTEQDSKDSTYSLSSTLTLSKADYEKHKVYACEVTHQGLSSPVTKSFNRGEC
Consider B8, for which, in experiment [1], the dissociation constant Kd stood at 4.47 nM.

B9: hB273_H2/hB273_L3 (antibody)
heavy: not shown
light: DVVMTQTPLSLPVSLGEPASISCRSSQSLVHSNGNTYLHWYLQKPGQSPKLLIYKVSNRFSGVPDRFSGSGSGTDFTLKISRVEAEDVGVYFCSQSTHVPWTFGGGTKVEIKRTVAAPSVFIFPPSDEQLKSGTASVVCLLNNFYPREAKVQWKVDNALQSGNSQESVTEQDSKDSTYSLSSTLTLSKADYEKHKVYACEVTHQGLSSPVTKSFNRGEC
For B9, the Kd in experiment [1] was 5.4 nM.

B10: hB273_H3/hB273_L3 (antibody)
heavy: not shown
light: DVVMTQTPLSLPVSLGEPASISCRSSQSLVHSNGNTYLHWYLQKPGQSPKLLIYKVSNRFSGVPDRFSGSGSGTDFTLKISRVEAEDVGVYFCSQSTHVPWTFGGGTKVEIKRTVAAPSVFIFPPSDEQLKSGTASVVCLLNNFYPREAKVQWKVDNALQSGNSQESVTEQDSKDSTYSLSSTLTLSKADYEKHKVYACEVTHQGLSSPVTKSFNRGEC
For B10, in experiment [1], the Kd amounted to 2.15 nM.

B11: hB273_H2-1-NE/hB273_L1-NE (antibody, V domains shown)
VH: EVQLVQSGAEVKKPGASVKVSCKASGYSFIGYFMNWMKQSPGMSLEWIGRFNPYNEDTFYNQKFKGKATLTVDKSTSTAYMELSSLRSEDTAVYFCARSAYYFDSGGYFDYWGQGTLVTVSS
VL: DIVMTQSPLSLPVTPGEPASISCRSSQSLVHSNENTYLHWYLQKPGQSPQLLIYKVSNRFSGVPDRFSGSGSGTDFTLKISRVEAEDVGVYYCSQSTHVPWTFGPGTKVEIKR
As for B11, in experiment [3], the dissociation constant (Kd) turned out to be 2.02 nM.

B12: hB273_H2-5/hB273_L1 (antibody, V domains shown)
VH: QVQLVQSGAEVKKPGASVKVSCKASGYSFIGYFMNWMKQSPGKSLEWIGRFNPYNGDTFYNQKFKGKATLTVDKSTSTAYMELSSLRSEDTAVYFCGRSAYYFDSGGYFDYWGQGTLVTVSS
VL: DIVMTQSPLSLPVTPGEPASISCRSSQSLVHSNGNTYLHWYLQKPGQSPQLLIYKVSNRFSGVPDRFSGSGSGTDFTLKISRVEAEDVGVYYCSQSTHVPWTFGPGTKVEIKR
Consider B12, for which the Kd in experiment [2] worked out at 1.38 nM.

B13: hB273_H2-1-NE/hB273_L1-NF (antibody, V domains shown)
VH: EVQLVQSGAEVKKPGASVKVSCKASGYSFIGYFMNWMKQSPGMSLEWIGRFNPYNEDTFYNQKFKGKATLTVDKSTSTAYMELSSLRSEDTAVYFCARSAYYFDSGGYFDYWGQGTLVTVSS
VL: DIVMTQSPLSLPVTPGEPASISCRSSQSLVHSNFNTYLHWYLQKPGQSPQLLIYKVSNRFSGVPDRFSGSGSGTDFTLKISRVEAEDVGVYYCSQSTHVPWTFGPGTKVEIKR
Turning to B13, the Kd in experiment [3] came out at 1.76 nM.

B14: hB273_H2-4/hB273_L1 (antibody, V domains shown)
VH: QVQLVQSGAEVKKPGASVKVSCKASGYSFIGYFMNWMKQSPGMSLEWIGRFNPYNGDTFYNQKFKGKATLTVDKSTSTAYMELSSLRSEDTAVYFCGRSAYYFDSGGYFDYWGQGTLVTVSS
VL: DIVMTQSPLSLPVTPGEPASISCRSSQSLVHSNGNTYLHWYLQKPGQSPQLLIYKVSNRFSGVPDRFSGSGSGTDFTLKISRVEAEDVGVYYCSQSTHVPWTFGPGTKVEIKR
In the case of B14, the Kd in experiment [2] amounted to 1.55 nM.

B15: hB273_H1/hB273_L1 (antibody, V domains shown)
VH: QVQLVQSGAEVKKPGASVKVSCKASGYSFIGYFMNWVRQAPGMGLEWMGRFNPYNGDTFYNQKFKGRVTLTVDKSTSTAYMELSSLRSEDTAVYYCARSAYYFDSGGYFDYWGQGTLVTVSS
VL: DIVMTQSPLSLPVTPGEPASISCRSSQSLVHSNGNTYLHWYLQKPGQSPQLLIYKVSNRFSGVPDRFSGSGSGTDFTLKISRVEAEDVGVYYCSQSTHVPWTFGPGTKVEIKR
For B15, the Kd in experiment [1] is 5.45 nM.

B16: hB273_H1-1/hB273_L1 (antibody, V domains shown)
VH: QVQLVQSGAEVKKPGASVKVSCKASGYSFIGYFMNWMRQAPGMGLEWMGRFNPYNGDTFYNQKFKGRVTLTVDKSTSTAYMELSSLRSEDTAVYFCGRSAYYFDSGGYFDYWGQGTLVTVSS
VL: DIVMTQSPLSLPVTPGEPASISCRSSQSLVHSNGNTYLHWYLQKPGQSPQLLIYKVSNRFSGVPDRFSGSGSGTDFTLKISRVEAEDVGVYYCSQSTHVPWTFGPGTKVEIKR
Consider B16, for which the Kd in experiment [2] was found to be 1.83 nM.

B17: hB273_H2-1-NE/hB273_L1-NL (antibody, V domains shown)
VH: EVQLVQSGAEVKKPGASVKVSCKASGYSFIGYFMNWMKQSPGMSLEWIGRFNPYNEDTFYNQKFKGKATLTVDKSTSTAYMELSSLRSEDTAVYFCARSAYYFDSGGYFDYWGQGTLVTVSS
VL: DIVMTQSPLSLPVTPGEPASISCRSSQSLVHSNLNTYLHWYLQKPGQSPQLLIYKVSNRFSGVPDRFSGSGSGTDFTLKISRVEAEDVGVYYCSQSTHVPWTFGPGTKVEIKR
On to B17, for which the Kd in experiment [3] was found to be 1.76 nM.

B18: hB273_H3/hB273_L1 (antibody, V domains shown)
VH: EVQLVQSGAEVKKPGASVKVSCKASGYSFIGYFMNWMKQSPGKSLEWIGRFNPYNGDTFYNQKFKGKATLTVDKSTSTAHMELSSLRSEDTAVYFCGRSAYYFDSGGYFDYWGQGTLVTVSS
VL: DIVMTQSPLSLPVTPGEPASISCRSSQSLVHSNGNTYLHWYLQKPGQSPQLLIYKVSNRFSGVPDRFSGSGSGTDFTLKISRVEAEDVGVYYCSQSTHVPWTFGPGTKVEIKR
For B18, the Kd in experiment [1] was found to be 2.4 nM.
